Data on 1 molecule can be found in article PMC10656236 (The Journal of Biological Chemistry, 2023).

This assay has as its target cohesin-NIPBL^c subcomplex containing SMC1, SMC3, RAD21 and NIPBL^c (no SA1) (human, UniProt Q14683;Q9UQE7;O60216;Q6KC79). Nature of the assay: reconstitution by mixing, AFM imaging in air.

cohesin-NIPBL^c subcomplex containing SMC1, SMC3, RAD21 and NIPBL^c (no SA1), sequence (Q14683 whole entry, chain 1 of 4): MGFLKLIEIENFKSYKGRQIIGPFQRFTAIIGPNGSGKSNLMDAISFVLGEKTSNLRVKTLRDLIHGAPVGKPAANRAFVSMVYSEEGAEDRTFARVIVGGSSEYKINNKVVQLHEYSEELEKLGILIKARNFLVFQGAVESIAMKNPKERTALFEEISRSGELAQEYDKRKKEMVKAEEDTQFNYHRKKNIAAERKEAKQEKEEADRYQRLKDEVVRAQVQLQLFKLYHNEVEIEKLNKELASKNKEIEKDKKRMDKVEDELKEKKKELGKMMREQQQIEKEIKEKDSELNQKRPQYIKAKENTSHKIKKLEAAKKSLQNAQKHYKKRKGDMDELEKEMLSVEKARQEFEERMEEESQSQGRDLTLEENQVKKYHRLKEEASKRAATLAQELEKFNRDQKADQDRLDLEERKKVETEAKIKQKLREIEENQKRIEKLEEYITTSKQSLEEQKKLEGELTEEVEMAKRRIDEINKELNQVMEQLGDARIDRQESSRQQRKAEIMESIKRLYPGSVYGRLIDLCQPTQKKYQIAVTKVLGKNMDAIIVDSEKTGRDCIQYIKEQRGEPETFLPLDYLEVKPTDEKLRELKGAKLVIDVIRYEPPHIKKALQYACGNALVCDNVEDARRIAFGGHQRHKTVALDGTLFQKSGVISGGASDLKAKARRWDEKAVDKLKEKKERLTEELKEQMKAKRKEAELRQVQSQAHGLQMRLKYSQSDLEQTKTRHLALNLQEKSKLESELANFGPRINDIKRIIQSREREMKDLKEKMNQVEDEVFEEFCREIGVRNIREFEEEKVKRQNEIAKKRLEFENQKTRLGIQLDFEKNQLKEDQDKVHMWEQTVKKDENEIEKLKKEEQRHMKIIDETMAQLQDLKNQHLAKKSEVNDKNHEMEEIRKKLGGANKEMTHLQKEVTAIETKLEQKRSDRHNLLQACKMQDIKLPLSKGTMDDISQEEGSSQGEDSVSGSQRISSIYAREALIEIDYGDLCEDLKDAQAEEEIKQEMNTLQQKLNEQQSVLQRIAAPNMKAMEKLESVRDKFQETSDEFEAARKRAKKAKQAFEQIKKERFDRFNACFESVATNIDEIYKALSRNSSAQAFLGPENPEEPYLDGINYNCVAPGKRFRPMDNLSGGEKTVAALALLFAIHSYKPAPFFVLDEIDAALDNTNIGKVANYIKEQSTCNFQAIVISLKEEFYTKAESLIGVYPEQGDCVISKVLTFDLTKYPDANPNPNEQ
cohesin-NIPBL^c subcomplex containing SMC1, SMC3, RAD21 and NIPBL^c (no SA1), sequence (Q9UQE7 whole entry, chain 2 of 4): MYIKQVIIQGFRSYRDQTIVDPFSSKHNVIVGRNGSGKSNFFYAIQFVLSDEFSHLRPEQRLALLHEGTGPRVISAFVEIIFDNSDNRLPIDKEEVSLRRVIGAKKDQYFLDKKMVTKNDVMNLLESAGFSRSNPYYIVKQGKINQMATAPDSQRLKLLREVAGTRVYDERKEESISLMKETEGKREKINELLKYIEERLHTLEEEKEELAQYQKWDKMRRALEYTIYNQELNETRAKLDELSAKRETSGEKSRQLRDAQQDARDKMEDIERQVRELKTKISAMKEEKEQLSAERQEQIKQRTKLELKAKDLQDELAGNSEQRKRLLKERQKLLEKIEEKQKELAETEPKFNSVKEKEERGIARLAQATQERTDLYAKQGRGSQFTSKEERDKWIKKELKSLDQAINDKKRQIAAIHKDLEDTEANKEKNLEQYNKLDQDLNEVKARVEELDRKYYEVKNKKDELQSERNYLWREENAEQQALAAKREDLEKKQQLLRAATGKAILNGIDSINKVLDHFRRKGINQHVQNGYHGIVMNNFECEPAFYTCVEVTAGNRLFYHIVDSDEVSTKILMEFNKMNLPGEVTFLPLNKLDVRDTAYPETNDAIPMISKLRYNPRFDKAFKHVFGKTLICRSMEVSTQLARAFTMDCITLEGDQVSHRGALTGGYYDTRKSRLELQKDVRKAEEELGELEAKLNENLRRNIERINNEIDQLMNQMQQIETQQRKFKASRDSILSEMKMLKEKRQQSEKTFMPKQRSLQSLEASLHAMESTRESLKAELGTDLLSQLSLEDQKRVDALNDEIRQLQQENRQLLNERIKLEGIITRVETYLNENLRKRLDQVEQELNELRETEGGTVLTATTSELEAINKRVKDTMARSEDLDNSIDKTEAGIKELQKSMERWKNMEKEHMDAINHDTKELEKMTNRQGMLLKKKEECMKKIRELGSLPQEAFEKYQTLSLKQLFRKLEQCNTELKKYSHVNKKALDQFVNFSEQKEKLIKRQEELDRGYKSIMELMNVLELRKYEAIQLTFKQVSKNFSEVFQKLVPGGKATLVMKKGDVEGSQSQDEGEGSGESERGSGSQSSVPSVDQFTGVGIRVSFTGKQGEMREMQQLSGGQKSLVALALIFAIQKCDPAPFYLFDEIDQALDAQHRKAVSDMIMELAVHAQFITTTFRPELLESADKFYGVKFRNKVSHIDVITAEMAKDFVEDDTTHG
cohesin-NIPBL^c subcomplex containing SMC1, SMC3, RAD21 and NIPBL^c (no SA1), sequence (O60216 whole entry, chain 3 of 4): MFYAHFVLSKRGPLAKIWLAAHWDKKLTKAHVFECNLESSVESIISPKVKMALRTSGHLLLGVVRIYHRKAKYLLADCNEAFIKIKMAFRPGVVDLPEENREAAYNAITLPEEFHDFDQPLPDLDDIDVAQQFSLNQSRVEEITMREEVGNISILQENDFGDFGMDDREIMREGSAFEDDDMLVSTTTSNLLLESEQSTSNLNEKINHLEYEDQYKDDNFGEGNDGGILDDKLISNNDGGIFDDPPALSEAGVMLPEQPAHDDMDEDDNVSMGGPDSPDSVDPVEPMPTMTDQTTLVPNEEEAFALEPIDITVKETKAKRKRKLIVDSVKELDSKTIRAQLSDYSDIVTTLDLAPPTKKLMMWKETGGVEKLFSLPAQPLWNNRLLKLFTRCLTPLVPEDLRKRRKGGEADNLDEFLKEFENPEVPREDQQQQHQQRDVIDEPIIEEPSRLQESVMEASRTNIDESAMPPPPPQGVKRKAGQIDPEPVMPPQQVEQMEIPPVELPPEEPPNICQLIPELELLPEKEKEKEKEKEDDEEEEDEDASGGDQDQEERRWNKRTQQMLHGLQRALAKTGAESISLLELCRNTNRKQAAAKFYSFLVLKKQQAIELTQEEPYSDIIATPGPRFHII
cohesin-NIPBL^c subcomplex containing SMC1, SMC3, RAD21 and NIPBL^c (no SA1), sequence (Q6KC79 1163-2804, chain 4 of 4): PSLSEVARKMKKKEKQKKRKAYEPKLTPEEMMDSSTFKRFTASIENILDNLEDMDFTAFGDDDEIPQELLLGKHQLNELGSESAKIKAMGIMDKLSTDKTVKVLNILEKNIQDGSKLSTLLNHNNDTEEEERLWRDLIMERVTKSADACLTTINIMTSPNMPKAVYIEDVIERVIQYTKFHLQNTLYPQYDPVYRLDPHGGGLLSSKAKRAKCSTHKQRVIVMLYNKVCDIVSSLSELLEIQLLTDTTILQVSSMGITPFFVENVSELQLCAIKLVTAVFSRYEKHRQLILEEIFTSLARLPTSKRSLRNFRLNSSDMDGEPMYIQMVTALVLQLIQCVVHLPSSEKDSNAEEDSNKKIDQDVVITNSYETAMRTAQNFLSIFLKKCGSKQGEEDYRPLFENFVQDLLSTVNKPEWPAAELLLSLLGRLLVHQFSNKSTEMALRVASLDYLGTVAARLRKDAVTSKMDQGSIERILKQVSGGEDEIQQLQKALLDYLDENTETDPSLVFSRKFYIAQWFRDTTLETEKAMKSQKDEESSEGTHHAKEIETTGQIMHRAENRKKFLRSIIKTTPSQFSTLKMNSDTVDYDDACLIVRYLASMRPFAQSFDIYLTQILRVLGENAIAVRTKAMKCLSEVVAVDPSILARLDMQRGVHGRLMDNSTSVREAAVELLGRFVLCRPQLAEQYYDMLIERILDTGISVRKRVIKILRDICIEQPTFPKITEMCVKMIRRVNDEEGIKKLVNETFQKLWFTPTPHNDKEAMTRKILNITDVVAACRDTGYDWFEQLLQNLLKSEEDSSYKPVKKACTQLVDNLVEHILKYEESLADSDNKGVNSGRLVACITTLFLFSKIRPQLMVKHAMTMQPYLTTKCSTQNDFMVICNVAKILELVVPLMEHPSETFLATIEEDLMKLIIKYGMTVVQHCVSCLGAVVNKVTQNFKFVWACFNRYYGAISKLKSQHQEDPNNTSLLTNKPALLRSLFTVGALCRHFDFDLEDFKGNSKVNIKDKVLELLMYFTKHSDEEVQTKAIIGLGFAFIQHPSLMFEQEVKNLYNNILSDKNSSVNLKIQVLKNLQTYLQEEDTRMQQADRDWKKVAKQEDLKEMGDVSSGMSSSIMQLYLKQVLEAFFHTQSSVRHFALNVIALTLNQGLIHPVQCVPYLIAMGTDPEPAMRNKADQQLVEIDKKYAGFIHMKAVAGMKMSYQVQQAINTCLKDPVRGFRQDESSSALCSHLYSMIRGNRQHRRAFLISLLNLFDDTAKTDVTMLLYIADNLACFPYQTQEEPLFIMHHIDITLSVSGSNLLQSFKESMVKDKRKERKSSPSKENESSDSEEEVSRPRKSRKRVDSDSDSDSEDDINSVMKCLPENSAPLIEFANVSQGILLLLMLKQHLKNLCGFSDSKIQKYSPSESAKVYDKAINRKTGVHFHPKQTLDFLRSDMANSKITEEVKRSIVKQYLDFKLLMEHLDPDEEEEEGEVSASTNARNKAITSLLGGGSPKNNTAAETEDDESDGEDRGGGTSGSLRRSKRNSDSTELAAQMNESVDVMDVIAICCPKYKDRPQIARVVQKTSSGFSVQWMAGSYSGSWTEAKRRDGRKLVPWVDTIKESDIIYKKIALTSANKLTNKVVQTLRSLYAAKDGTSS

B1: SA1dc (SA1 1-1054 AAs, without its C terminus) (domain or fragment)
chain: MITSELPVLQDSTNETTAHSDAGSELEETEVKGKRKRGRPGRPPSTNKKPRKSPGEKSRIEAGIRGAGRGRANGHPQQNGEGEPVTLFEVVKLGKSAMQSVVDDWIESYKQDRDIALLDLINFFIQCSGCRGTVRIEMFRNMQNAEIIRKMTEEFDEDSGDYPLTMPGPQWKKFRSNFCEFIGVLIRQCQYSIIYDEYMMDTVISLLTGLSDSQVRAFRHTSTLAAMKLMTALVNVALNLSIHQDNTQRQYEAERNKMIGKRANERLELLLQKRKELQENQDEIENMMNSIFKGIFVHRYRDAIAEIRAICIEEIGVWMKMYSDAFLNDSYLKYVGWTLHDRQGEVRLKCLKALQSLYTNRELFPKLELFTNRFKDRIVSMTLDKEYDVAVEAIRLVTLILHGSEEALSNEDCENVYHLVYSAHRPVAVAAGEFLHKKLFSRHDPQAEEALAKRRGRNSPNGNLIRMLVLFFLESELHEHAAYLVDSLWESSQELLKDWECMTELLLEEPVQGEEAMSDRQESALIELMVCTIRQAAEAHPPVGRGTGKRVLTAKERKTQIDDRNKLTEHFIITLPMLLSKYSADAEKVANLLQIPQYFDLEIYSTGRMEKHLDALLKQIKFVVEKHVESDVLEACSKTYSILCSEEYTIQNRVDIARSQLIDEFVDRFNHSVEDLLQEGEEADDDDIYNVLSTLKRLTSFHNAHDLTKWDLFGNCYRLLKTGIEHGAMPEQIVVQALQCSHYSILWQLVKITDGSPSKEDLLVLRKTVKSFLAVCQQCLSNVNTPVKEQAFMLLCDLLMIFSHQLMTGGREGLQPLVFNPDTGLQSELLSFVMDHVFIDQDEENQSMEGDEEDEANKIEALHKRRNLLAAFSKLIIYDIVDMHAAADIFKHYMKYYNDYGDIIKETLSKTRQIDKIQCAKTLILSLQQLFNELVQEQGPNLDRTSAHVSGIKELARRFALTFGLDQIKTREAVATLHKDGIEFAFKYQNQKGQEYPPPNLAFLEVLSEFSSKLLRQDKKTVHSYLEKFLTEQMMERREDVWLPLISYRNSLVT
For the molecule B1, the binding result was “binds”.
